# Laboratory results reported in PMC9250616 (2022).
# T1: Protective antigen (Bacillus anthracis, UniProt P13423)
# T1 chain: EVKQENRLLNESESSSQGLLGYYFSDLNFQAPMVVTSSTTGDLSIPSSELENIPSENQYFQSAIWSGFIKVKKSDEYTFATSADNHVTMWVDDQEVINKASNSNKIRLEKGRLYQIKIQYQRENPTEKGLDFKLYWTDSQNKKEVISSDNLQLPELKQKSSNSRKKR
# B1: CMG2 (protein)
# chain: QEQPSCRRAFDLYFVLDKSGSVANNWIEIYNFVQQLAERFVSPEMRLSFIVFSSQATIILPLTGDRGKISKGLEDLKRVSPVGETYIHEGLKLANEQIQKAGGLKTSSIIIALTDGKLDGLVPSYAEKEAKISRSLGASVYCVGVLDFEQAQLERIADSKEQVFPVKGGFQALKGIINSILAQSCTEILELQPSSVCVGEEFQIVLSGRGFMLGSRNGSVLCTYTVNETYTTSVKPVSVQLNSMLCPAPILNKAGETLDVSVSFNGGKSVISGSLIVTATECSNG
# Molecular target: T1, Protective antigen
binder,measurement,value
B1,Kd,0.46 nM
